This passage reports percent of S1 depleted results from patent US20240399042A1.

The assay concerns the target SARS-CoV-2 (2019-nCoV) Spike S1-His Recombinant Protein (HPLC-verified), Sino Biological Catalog Number 40591-V08H (SARS-CoV-2) (UniProt P0DTC2).

As to “Galanthus nivalis agglutinin (GNA) (from UniProt P30617 24-128)”, the percent of S1 depleted at 15 minutes was over 90%.
